Source: paper PMC3024409, “Protein-Protein Interactions within Late Pre-40S Ribosomes” (PLoS ONE, 2011)

T1: (MBP-)Enp1 (S. cerevisiae, UniProt P38333 1-483)
T1 construct: Enp1, S. cerevisiae; gene amplified from genomic DNA, cloned between SfoI and BamHI of pSV272; source: E. coli Rosetta, purified (Ni-NTA, MonoQ, gel filtration); not shown: His6-MBP, N-terminal, kept
T1 sequence (looked up): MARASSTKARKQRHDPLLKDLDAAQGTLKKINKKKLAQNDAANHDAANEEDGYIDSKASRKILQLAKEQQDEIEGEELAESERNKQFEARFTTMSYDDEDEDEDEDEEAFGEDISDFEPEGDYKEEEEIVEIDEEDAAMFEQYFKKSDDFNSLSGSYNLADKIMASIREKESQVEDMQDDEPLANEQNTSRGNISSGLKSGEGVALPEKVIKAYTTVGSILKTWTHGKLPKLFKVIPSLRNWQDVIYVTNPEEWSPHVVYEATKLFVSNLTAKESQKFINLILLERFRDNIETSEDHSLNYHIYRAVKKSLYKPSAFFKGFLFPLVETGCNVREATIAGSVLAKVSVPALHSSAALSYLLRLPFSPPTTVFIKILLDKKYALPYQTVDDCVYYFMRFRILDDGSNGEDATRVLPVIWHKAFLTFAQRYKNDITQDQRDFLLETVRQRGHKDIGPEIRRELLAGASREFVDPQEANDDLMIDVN

T2: Enp1 (untagged) (S. cerevisiae, UniProt P38333 1-483)
T2 construct: Enp1, S. cerevisiae; gene amplified from genomic DNA, cloned between SfoI and BamHI of pSV272; source: E. coli Rosetta, purified (Ni-NTA, TEV cleavage, MonoQ, gel filtration); not shown: His6-MBP, N-terminal, cleaved
T2 sequence (looked up): T1 sequence (looked up)

T3: (MBP-)Tsr1 (S. cerevisiae, UniProt Q07381 1-788)
T3 construct: Tsr1, S. cerevisiae; gene amplified from genomic DNA with primers from the start codon to the stop codon, cloned between SfoI and HindIII of pSV272; source: E. coli Rosetta, purified (Ni-NTA, MonoQ, gel filtration; TEV protease omitted); not shown: His6-MBP, N-terminal, kept
T3 sequence (looked up): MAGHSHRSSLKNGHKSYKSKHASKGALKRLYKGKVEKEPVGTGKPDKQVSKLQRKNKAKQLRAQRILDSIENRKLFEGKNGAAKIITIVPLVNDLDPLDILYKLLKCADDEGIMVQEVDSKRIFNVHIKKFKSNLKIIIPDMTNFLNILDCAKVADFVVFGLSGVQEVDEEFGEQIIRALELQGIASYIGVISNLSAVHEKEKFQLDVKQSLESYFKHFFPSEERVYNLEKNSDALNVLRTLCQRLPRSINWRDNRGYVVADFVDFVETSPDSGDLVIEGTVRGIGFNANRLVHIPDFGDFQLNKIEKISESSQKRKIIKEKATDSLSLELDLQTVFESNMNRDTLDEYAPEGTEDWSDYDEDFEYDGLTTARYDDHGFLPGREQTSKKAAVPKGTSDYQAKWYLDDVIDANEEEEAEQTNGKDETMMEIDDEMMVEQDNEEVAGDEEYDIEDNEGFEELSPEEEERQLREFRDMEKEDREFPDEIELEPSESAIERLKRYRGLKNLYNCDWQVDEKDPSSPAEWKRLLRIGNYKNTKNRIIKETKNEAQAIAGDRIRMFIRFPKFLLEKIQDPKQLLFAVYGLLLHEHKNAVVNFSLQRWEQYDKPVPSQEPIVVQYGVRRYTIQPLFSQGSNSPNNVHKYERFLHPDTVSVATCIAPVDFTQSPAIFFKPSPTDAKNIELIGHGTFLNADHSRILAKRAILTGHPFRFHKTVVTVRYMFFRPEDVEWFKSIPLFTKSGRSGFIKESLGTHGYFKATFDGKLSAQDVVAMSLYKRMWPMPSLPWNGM

T4: (MBP-)Rio2 (S. cerevisiae, UniProt P40160 1-425)
T4 construct: Rio2, S. cerevisiae; gene amplified from genomic DNA with primers from the start codon to the stop codon, cloned between SfoI and BamHI of pSV272; 93 kDa as printed; source: E. coli Rosetta, purified (Ni column, MonoQ, gel filtration); not shown: His6-MBP, N-terminal, kept
T4 sequence (looked up): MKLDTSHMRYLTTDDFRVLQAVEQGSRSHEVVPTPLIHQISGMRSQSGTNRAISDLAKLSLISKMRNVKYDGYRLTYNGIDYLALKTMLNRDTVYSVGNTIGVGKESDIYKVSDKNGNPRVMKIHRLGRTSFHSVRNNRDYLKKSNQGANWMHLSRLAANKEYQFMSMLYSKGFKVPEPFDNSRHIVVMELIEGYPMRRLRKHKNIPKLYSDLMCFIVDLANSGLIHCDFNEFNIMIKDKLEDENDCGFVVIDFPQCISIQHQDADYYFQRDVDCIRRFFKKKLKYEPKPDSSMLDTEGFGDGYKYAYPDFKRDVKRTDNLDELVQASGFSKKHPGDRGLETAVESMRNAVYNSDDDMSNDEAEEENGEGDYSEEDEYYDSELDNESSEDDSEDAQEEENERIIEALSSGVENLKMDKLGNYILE

B1: Ltv1 (untagged) (natural protein, S. cerevisiae, UniProt P34078 1-463, looked up)
chain: MSKKFSSKNSQRYVVVHRPHDDPSFYDTDASAHVLVPVSNPNKTSPEADLRKKDVSSTKPKGRRAHVGEAALYGINFDDSEYDYTQHLKPIGLDPENSIFIASKGNEQKVEKKNIEDLFIEPKYRRDEIEKDDALPVFQRGMAKPEYLLHQQDTTDEIRGFKPDMNPALREVLEALEDEAYVVNDDVVVEDISKKTQLQGDNYGEEEKEDDIFAQLLGSGEAKDEDEFEDEFDEWDIDNVENFEDENYVKEMAQFDNIENLEDLENIDYQADVRRFQKDNSILEKHNSDDEFSNAGLDSVNPSEEEDVLGELPSIQDKSKTGKKKRKSRQKKGAMSDVSGFSMSSSAIARTETMTVLDDQYDQIINGYENYEEELEEDEEQNYQPFDMSAERSDFESMLDDFLDNYELESGGRKLAKKDKEIERLKEAADEVSKGKLSQRRNRERQEKKKLEKVTNTLSSLKF
notes: Ltv1, S. cerevisiae; gene amplified from genomic DNA with primers from the start codon to the stop codon, cloned between SfoI and BamHI of pSV272; also called export adaptor Ltv1; source: E. coli Rosetta, purified (Ni-NTA, TEV cleavage, MonoQ, gel filtration); not shown: His6-MBP, N-terminal, cleaved
B2: (MBP-)Ltv1 (natural protein, S. cerevisiae, UniProt P34078 1-463, looked up)
chain: B1 chain
notes: Ltv1, S. cerevisiae; gene amplified from genomic DNA with primers from the start codon to the stop codon, cloned between SfoI and BamHI of pSV272; source: E. coli Rosetta, purified (Ni-NTA, MonoQ, gel filtration; TEV protease omitted); not shown: His6-MBP, N-terminal, kept
B3: Rio2 (untagged) (enzyme, S. cerevisiae, UniProt P40160 1-425, looked up)
chain: T4 sequence (looked up)
notes: Rio2, S. cerevisiae; Cloning into the NheI site of pET23a may leave a few vector residues before the first methionine; also called kinase Rio2; protein kinase Rio2; source: E. coli Rosetta, purified (Hi-Trap Q, MonoQ, gel filtration)
B4: (MBP-)Rps15 (natural protein, S. cerevisiae, UniProt Q01855 2-142, looked up)
chain: SQAVNAKKRVFKTHSYRGVDLEKLLEMSTEDFVKLAPARVRRRFARGMTSKPAGFMKKLRAAKLAAPENEKPAPVRTHMRNMIIVPEMIGSVVGIYNGKAFNQVEIRPEMLGHYLGEFSITYTPVRHGRAGATTSRFIPLK
notes: ribosomal protein Rps15, S. cerevisiae; gene amplified from genomic DNA, cloned between SfoI and HindIII of pSV272; source: E. coli Rosetta, purified (Ni-NTA, MonoQ, gel filtration); not shown: His6-MBP, N-terminal, kept
B5: (MBP-)Dim1 (enzyme, S. cerevisiae, UniProt P41819 1-318, looked up)
chain: MGKAAKKKYSGATSSKQVSAEKHLSSVFKFNTDLGQHILKNPLVAQGIVDKAQIRPSDVVLEVGPGTGNLTVRILEQAKNVVAVEMDPRMAAELTKRVRGTPVEKKLEIMLGDFMKTELPYFDICISNTPYQISSPLVFKLINQPRPPRVSILMFQREFALRLLARPGDSLYCRLSANVQMWANVTHIMKVGKNNFRPPPQVESSVVRLEIKNPRPQVDYNEWDGLLRIVFVRKNRTISAGFKSTTVMDILEKNYKTFLAMNNEMVDDTKGSMHDVVKEKIDTVLKETDLGDKRAGKCDQNDFLRLLYAFHQVGIHFS
notes: Dim1, S. cerevisiae; gene amplified from genomic DNA with primers from the start codon to the stop codon, cloned between SfoI and HindIII of pSV272; source: E. coli Rosetta, purified (Ni-NTA, MonoS, gel filtration; no TEV protease); not shown: His6-MBP, N-terminal, kept
B6: Dim1 (untagged) (enzyme, S. cerevisiae, UniProt P41819 1-318, looked up)
chain: B5 chain
notes: Dim1, S. cerevisiae; gene amplified from genomic DNA with primers from the start codon to the stop codon, cloned between SfoI and HindIII of pSV272; also called methylase Dim1; source: E. coli Rosetta, purified (Ni-NTA, TEV cleavage, MonoS, gel filtration); not shown: His6-MBP, N-terminal, cleaved

Assays:
Experiment in all cases: pull-down; 3 µM MBP-tagged bait and 5 µM untagged prey in 50 mM HEPES pH 7.5, 150 mM KCl; 10 min at room temperature, 1 h at 4°C with amylose resin; washed, eluted with 20 mM maltose; SDS-PAGE, Coomassie
Details in all cases: both partners purified
(MBP-)Enp1 = molecular target: T1, (MBP-)Enp1
Enp1 (untagged) = molecular target: T2, Enp1 (untagged)
(MBP-)Tsr1 = molecular target: T3, (MBP-)Tsr1
Ltv1 (untagged) = molecular target: B1
Rio2 (untagged) = molecular target: B3
(MBP-)Rio2 = molecular target: T4, (MBP-)Rio2

Binder: B1
- binding result ((MBP-)Enp1): binds

Binder: B2
- binding result (Enp1 (untagged)): binds

Binder: B3
- binding result ((MBP-)Tsr1): binds

Binder: B4
- binding result (Ltv1 (untagged)): binds
- binding result (Rio2 (untagged)): binds

Binder: B5
- binding result (Rio2 (untagged)): binds

Binder: B6
- binding result ((MBP-)Rio2): binds
